Test results as given in the RNAGym collection of RNA variant scans (doi:10.1073/pnas.2313332121).

B1: TPR t1 (parent)
chain: GACCAAUCUGCCCUCAGAGCUCGAGAACAUCUUCGGAUGCAGAGGAGGCAGGCUUCGGUGGCGCGAUAGCGCCAACGUCCUCAACCUCCAAUGCAUCCCACCACAUGAUGAUGCCUGAAGAGCCUUGGUUUUUUG

Variants of: B1
Assay: polymerase ribozyme fitness, log enrichment relative to wild type (log ratio); higher = more active; in vitro selection for triplet polymerase activity
In short: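 Fitness measures genotype enrichment against wild-type enrichment on a logarithmic scale, with inverse-variance-weighted averaging of replicates. The logarithm is base 2, and genotypes were kept only with ≥10 input reads and ≥1 read per output in Illumina sequencing. The sequenced libraries came from one triplicate in vitro selection round, including frozen incubation at −7 °C, of PCR-built, transcribed mutant libraries of each subunit of a heterodimeric triplet polymerase ribozyme.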

Row | Variant | polymerase ribozyme fitness (log ratio)
1 | C20U C40U C70U G120C | -1.36
2 | G19U G51A G60C G120A | -6.42
3 | C20A C40A C115A | -4.58
4 | C20G G69U C99A | -4.6
5 | C20A C34G C85U A90C G120C | -5.64
6 | C20A C79U C97U C124A G127C | -2.63
7 | C20U A43C G47A C82G A95U A105C U112A | -4.61
8 | C20G G42U G113C | -3.64
9 | G19U C20A C72G G77C A91C C94A U106A | -5.31
10 | C20A C34U C72U C76A C82A A121C G135U | -6.49
11 | C20U C62U C94U | -2.47
12 | C20A C40A C76G C124A | -2.76
13 | G19U C89G | -4.36
14 | C20A G39A C80U A91C | -6.34
15 | G19U G60A G110U | -6.37
16 | C20U C56G G63C | -5.5
17 | C20A G42C | -4.12
18 | G19U G63C U92A | -5.54
19 | G19U G71C A121U | -2.34
20 | G19U G71A U78A | -4.64
21 | G19U G39U G48A G63C A111G | -4.79

Row | Variant | polymerase ribozyme fitness (log ratio)
22 | G19C U78C A90G G113U C114U | -0.588
23 | C20A C53A G57A C73U C79U C102A A121C | -4.43
24 | C20A C72G U81A U109A A118C G122A | -5.92
25 | C20A G69U C104A | -2.59
26 | C20G C31U G35U U109G | -4.7
27 | C20U C56U G93A C114G U129G | -2.17
28 | C20G A43C C53A A119G | -5.03
29 | G19U U55G C123A | -4.18
30 | C20G C34A A41G C53A G69C G120C | -6.31
31 | C20A G57A C72A U87A | -4.5
32 | G19C C22G C72U | -4.44
33 | C20G U96G | -3.91
34 | C20U C72A C102U U109A C114A U133G | -5.73
35 | G19U C53G U54A G61A | -2.73
36 | C20G C34U G63A C79U C99U A111C | -5.53
37 | G19U A24G U38C G61U G113A | -3.85
38 | C20U C70G | -3.54
39 | C20U C70A | -3.13
40 | G19U C72A | -3.06
41 | G19U G47U C49G C70U C86U U87C U109A C115U | -6.81
42 | C20A A26G G63U C99A C104A | -6.09

Row | Variant | polymerase ribozyme fitness (log ratio)
43 | C20A C70G | -5.59
44 | C20A C70A | -4.86
45 | C20A C56A C82U | -3.22
46 | G19U A26U C114A | -1.45
47 | C20U A26C G52A G69A C72G A118G G120C U126G | -6.5
48 | G19U G71A | -3.31
49 | C20A A27G C40G U55C G71C G113A | -3.84
50 | C20U C22A A50C G69U | -2.32
51 | G19C C79A C89A | -4.61
52 | C20A G42U G47U C53U G120U | -3.98
53 | C20A C56A C98U | -3.64
54 | C20G G61A A90C A95U | -3.88
55 | C20G A90C C98U C124A U126A | -4.21
56 | C20U C70U G113U G120U | -3.51
57 | C20G A91C C114U | -2.15
58 | C20U A50U U55G C76U U112C G127A | -4.02
59 | C20U A46G C94U G107A U109G G120A | -5.88
60 | G19C G44C C70A G93C C124G | -5.3
61 | C20G C53U G113U | -0.634
62 | C20A U96A | -4.02
63 | C20U A37U C79U U112A | 0.591

Row | Variant | polymerase ribozyme fitness (log ratio)
64 | G19C G45A C72A G120C | -1.67
65 | C20G C123U U126A | -3.94
66 | C20A U129C | -3.02
67 | C20G G44A | -5.14
68 | C20G A46U C62U C114U | -3.55
69 | G19U U21A C49A C82A G113C | -4.41
70 | C20U A90U C123U | -1.5
71 | C20G G60C | -4.55
72 | C20U A29G G61U C115A U116C G117U G135C | -1.97
73 | G19C C22U A46C G61U C114U | -4.53
74 | C20A C53A C79U G110U | -4.5
75 | G19U A46U G60A | -3.83
76 | C20G G135U | -4.02
77 | C20A C86G C89U A119U | -6.11
78 | C20G C64A C98U A105C C114U U116A | -6.79
79 | G19U C62U | -3.18
80 | C20A C72G A95U G113C | -6.92
81 | G19C G120A | -1.56
82 | C20A G23C U33C C62U U106A A108C G117C | -8.64
83 | G19C A43C G44C C64A A105C A111U | -7.06
